# Experimental data from paper PMC2909260.
# Molecular target: ILT2 (immunoglobulin-like transcript 2)/CD85j (human (endogenous in peripheral blood CD4+ T cells)) (UniProt Q8NHL6)
# Chain of UniProt Q8NHL6 (Q8NHL6 24-650): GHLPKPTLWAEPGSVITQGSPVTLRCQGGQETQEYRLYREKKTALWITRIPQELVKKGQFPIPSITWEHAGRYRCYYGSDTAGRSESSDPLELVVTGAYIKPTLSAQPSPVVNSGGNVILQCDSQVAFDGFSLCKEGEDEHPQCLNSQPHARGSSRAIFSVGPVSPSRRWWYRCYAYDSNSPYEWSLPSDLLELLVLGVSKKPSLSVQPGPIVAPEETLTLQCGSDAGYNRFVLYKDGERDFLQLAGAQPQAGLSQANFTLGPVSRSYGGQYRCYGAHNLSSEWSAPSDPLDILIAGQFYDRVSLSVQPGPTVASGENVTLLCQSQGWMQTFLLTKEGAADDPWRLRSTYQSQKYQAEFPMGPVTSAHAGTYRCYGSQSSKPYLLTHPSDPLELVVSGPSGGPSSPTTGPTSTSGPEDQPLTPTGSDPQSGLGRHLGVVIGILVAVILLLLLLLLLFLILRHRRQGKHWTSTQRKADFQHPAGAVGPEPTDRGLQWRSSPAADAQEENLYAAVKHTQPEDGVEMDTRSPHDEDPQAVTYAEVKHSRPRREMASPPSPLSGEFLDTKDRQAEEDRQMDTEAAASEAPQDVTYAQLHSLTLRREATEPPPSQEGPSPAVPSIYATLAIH
substance,measurement,value
soluble HLA-G (recombinant HLA-G1/G5 protein) (from UniProt P17693 25-308; P61769 21-119) (complex),"% of inhibition of CXCR3 expression (flow cytometry) by sHLA-G on anti-CD3 stimulated CD4+ T cells, with blocking anti-ILT2/CD85j mAb (clone #292319, 1 ug/10^6 cells) added",31.5%
same,"% of inhibition of CXCR3 expression (flow cytometry) by sHLA-G on anti-CD3 stimulated CD4+ T cells, with isotype-matched control mAb added (reference for the anti-ILT2 blocking)",47.5%
